Assay [1] concerns the target Hoxd13 (expressed in transfected cells) (UniProt P70217).
In assay [2] the target is Hoxd13 (expressed in transfected cells) (UniProt P70217 1-339). Kind of assay: cell-based or functional assay.
Sequence of Hoxd13 (expressed in transfected cells) (UniProt P70217 1-339) (P70217 whole entry): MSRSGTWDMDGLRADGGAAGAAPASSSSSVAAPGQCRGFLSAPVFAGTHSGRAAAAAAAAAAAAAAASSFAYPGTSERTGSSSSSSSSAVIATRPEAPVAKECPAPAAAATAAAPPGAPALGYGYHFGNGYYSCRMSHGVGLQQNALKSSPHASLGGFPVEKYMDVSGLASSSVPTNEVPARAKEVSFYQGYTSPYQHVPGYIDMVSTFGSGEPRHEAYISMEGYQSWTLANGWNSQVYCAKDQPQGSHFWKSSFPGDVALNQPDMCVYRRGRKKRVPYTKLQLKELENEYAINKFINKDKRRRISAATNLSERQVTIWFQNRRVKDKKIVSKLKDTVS

Sequence of Hoxd13 (expressed in transfected cells) (UniProt P70217) (P70217 whole entry): as above

As to “Gli3 repressor isoform (Gli3R), Myc-epitope tagged (domain or fragment)”, the repression by co-expressed Gli3R of Hand2-Hoxd13 mediated transactivation of the ZRS-Luc reporter in NIH3T3 cells in assay [1] amounted to 50%.

B1: Hand2, Flag-epitope tagged (natural protein, UniProt Q61039 1-217, looked up)
chain: MSLVGGFPHHPVVHHEGYPFAAAAAAAAAAAASRCSHEENPYFHGWLIGHPEMSPPDYSMALSYSPEYASGAAGLDHSHYGGVPPGAGPPGLGGPRPVKRRGTANRKERRRTQSINSAFAELRECIPNVPADTKLSKIKTLRLATSYIAYLMDLLAKDDQNGEAEAFKAEIKKTDVKEEKRKKELNEILKSTVSSNDKKTKGRTGWPQHVWALELKQ
With B1, in assay [2], the “luciferase activity of the ZRS-Luc reporter in NIH3T3 cells on co-transfection of Hand2 and Hoxd13 (basal activity set to 1; Hand2 alone ∼3-fold, Hoxd13 alone ∼6.5-fold)” value was approximately 10.5 fold.

The values are drawn from PMC2851570, “Distinct Roles of Hand2 in Initiating Polarity and Posterior Shh Expression during the Onset of Mouse Limb Bud Development” (PLoS Genetics, 2010).
